{"source": "patent US20240409621A1", "key": {"[1]": {"biological_target": "F protein of RSV type B strain 18537 (on the virus in the neutralization assay) (respiratory syncytial virus type B, strain 18537) (UniProt P13843)", "experiment": "cell-based or functional assay"}, "[2]": {"biological_target": "F protein of RSV A2 (on the virus in the neutralization assay) (respiratory syncytial virus, A2 strain) (UniProt P03420)", "experiment": "cell-based or functional assay"}}}
{"substance": "D25 (antibody)", "values": [{"measurement": "IC50 of each RSV neutralizing antibody, 18537", "setting": "[1]", "result": 0.167, "unit": "µg/mL"}, {"measurement": "IC50 of each RSV neutralizing antibody, RSV A2", "setting": "[2]", "result": 0.0222, "unit": "µg/mL"}]}
